Data as given in article PMC7035229 (Acta Neuropathologica, 2019).

Experiments:
[1] = molecular target: T1, soluble aggregates of Aβ_(1–42) (SBAs) (human, UniProt P05067 672-713); assay: ELISA; conditions: both partners purified
T1 construct: also called soluble Aβ aggregates; SPAs (as a member of the group)

[2] = molecular target: T2, soluble aggregates of tau (STAs) (human, UniProt P10636-8 1-441); assay: ELISA; conditions: both partners purified
T2 construct: also called soluble Tau aggregates; SPAs (as a member of the group)
T2 sequence (P10636 other isoform, or with tags, fused parts or gaps): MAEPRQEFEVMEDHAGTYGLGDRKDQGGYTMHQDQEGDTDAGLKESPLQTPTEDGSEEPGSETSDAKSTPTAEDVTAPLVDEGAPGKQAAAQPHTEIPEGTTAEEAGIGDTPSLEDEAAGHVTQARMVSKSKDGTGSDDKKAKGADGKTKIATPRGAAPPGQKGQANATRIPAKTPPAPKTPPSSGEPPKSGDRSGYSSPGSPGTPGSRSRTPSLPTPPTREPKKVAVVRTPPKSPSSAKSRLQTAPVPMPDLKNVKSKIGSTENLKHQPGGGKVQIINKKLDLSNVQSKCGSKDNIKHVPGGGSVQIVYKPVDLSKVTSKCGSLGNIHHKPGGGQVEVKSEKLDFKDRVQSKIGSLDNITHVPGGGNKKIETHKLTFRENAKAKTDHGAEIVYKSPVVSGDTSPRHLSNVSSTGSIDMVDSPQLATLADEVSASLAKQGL

B1: recombinant murine prion protein PrP_(23–231) (domain or fragment)
chain: not shown
notes: also called full-length PrP
[1]
  binding result: binds
[2]
  binding result: binds
